From publication PMC12012533, “Structural basis for immune cell binding of Fusobacterium nucleatum via the trimeric autotransporter adhesin CbpF” (Proceedings of the National Academy of Sciences of the …, 2025) come the findings set out here.

B1: CEACAM binding protein of Fusobacterium (CbpF) from F. nucleatum ATCC25586, wild type, detergent-solubilised (natural protein)
chain: SAAPVIKAGTATDSTEAGVDNVANGVKSSAFGYDNKAIEKESSAFGTGNRATGEFSSAFGFHNIASKIHSSAFGSNNAADGVNSSAFGFKNTVSGFNSSAFGSQYQVTGNFSGAFGMGEFNGQYQYKNEGNNSYMIGNKNKIASGSDDNFILGNNVHIGGGINNSVALGNNSTVSASNTVSVGSSTLKRKIVNVGDGAISANSSDAVTGRQLYSGNGIDTAAWQNKLNVTRKNDYKDANDIDVNKWKAKLGVGSGGGGGAPVDAYTKSEADNKFANKTDLNDYTKKDDYKDANGIDVDKWKAKLGTGAGTADIENLRNEVNEKIDDVKDEVRTVGSLSAALAGLHPMQYDPKAPVQVMAALGHYRDKQSVAVGASYYFNDRFMMSTGIALSGEKRTKTMANVGFTLKLGKGSGVTYDETPQYVVQNEVKRLTVENQELKERVRNLEEKLNMLLKNK
notes: Cloned in pASK-IBA2C behind an N-terminal E. coli OmpA signal peptide; Homotrimer; also called CbpF WT; CbpF wt; source: E. coli BL21 C43, extracted from membranes with lauroylsarcosine, purified (StrepTactin, SEC)
B2: CEACAM binding protein of Fusobacterium (CbpF), F. nucleatum ATCC25586, wild type (natural protein)
chain: SAAPVIKAGTATDSTEAGVDNVANGVKSSAFGYDNKAIEKESSAFGTGNRATGEFSSAFGFHNIASKIHSSAFGSNNAADGVNSSAFGFKNTVSGFNSSAFGSQYQVTGNFSGAFGMGEFNGQYQYKNEGNNSYMIGNKNKIASGSDDNFILGNNVHIGGGINNSVALGNNSTVSASNTVSVGSSTLKRKIVNVGDGAISANSSDAVTGRQLYSGNGIDTAAWQNKLNVTRKNDYKDANDIDVNKWKAKLGVGSGGGGGAPVDAYTKSEADNKFANKTDLNDYTKKDDYKDANGIDVDKWKAKLGTGAGTADIENLRNEVNEKIDDVKDEVRTVGSLSAALAGLHPMQYDPKAPVQVMAALGHYRDKQSVAVGASYYFNDRFMMSTGIALSGEKRTKTMANVGFTLKLGKGSGVTYDETPQYVVQNEVKRLTVENQELKERVRNLEEKLNMLLKNK
modifications: AlexaFluor 647 NHS-ester conjugate (cell binding and competition assays only)
notes: CbpF (FN1499) of Fusobacterium nucleatum ATCC25586, codon-optimized gene; mature protein after signal peptide cleavage, residues S24-K479; numbers count on the precursor with its own signal peptide; Cloned in frame with an N-terminal E. coli OmpA signal peptide (export signal; In detergent for SPR and the SEC test, in DMPC/MSP1D1 nanodiscs for cryo-EM and the cell assays; also called CbpF wt; …)
B3: CEACAM1 extracellular domain (residues 35–428), C-terminal hexahistidine tag (domain or fragment, human, UniProt P13688 35-428, looked up)
chain: QLTTESMPFNVAEGKEVLLLVHNLPQQLFGYSWYKGERVDGNRQIVGYAIGTQQATPGPANSGRETIYPNASLLIQNVTQNDTGFYTLQVIKSDLVNEEATGQFHVYPELPKPSISSNNSNPVEDKDAVAFTCEPETQDTTYLWWINNQSLPVSPRLQLSNGNRTLTLLSVTRNDTGPYECEIQNPVSANRSDPVTLNVTYGPDTPTISPSDTYYRPGANLSLSCYAASNPPAQYSWLINGTFQQSTQELFIPNITVNNSGSYTCHANNSVTGCNRTTVKTIIVTELSPVVAKPQIKASKTTVTGDKDSVNLTCSTNDTGISIRWFFKNQSLPSSERMKLSQGNTTLSINPVKREDAGTYWCEVFNPISKNQSDPIMLNVNYNALPQENGLSPG
modifications: glycosylated (N-acetylglucosamines modelled on the IgV-like and IgC2-like A1 domains)
notes: human carcinoembryonic antigen-related cell adhesion molecule 1 (CEACAM1), extracellular domain, residues 35-428 of UniProt P13688; also called CEACAM1/ECD; CEACAM1-ECD; source: bought: ACRO Biosystems (Cat. No. CE1-H5220), produced in HEK293 cells; not shown: His6, C-terminal, kept

Data set [1] concerns the molecule itself. As to the kind of experiment: SDS-PAGE (SDS- and heat-resistant oligomer); elution fractions of membrane-extracted CbpF from StrepTactin resin; monomer at 50 kDa, trimer at 150 kDa.
Data set [2] deals with T1, CEACAM1-eGFP fusion protein on transfected HEK293T cells (human, UniProt P13688 35-526).
T1 construct: human CEACAM1 expressed from pcDNA3.1 as a GFP fusion; also called GFP-tagged CEACAM1; CEACAM1-GFP; source: HEK293T, transfected (pcDNA3.1, CMV promotor), on cells
T1 sequence (looked up): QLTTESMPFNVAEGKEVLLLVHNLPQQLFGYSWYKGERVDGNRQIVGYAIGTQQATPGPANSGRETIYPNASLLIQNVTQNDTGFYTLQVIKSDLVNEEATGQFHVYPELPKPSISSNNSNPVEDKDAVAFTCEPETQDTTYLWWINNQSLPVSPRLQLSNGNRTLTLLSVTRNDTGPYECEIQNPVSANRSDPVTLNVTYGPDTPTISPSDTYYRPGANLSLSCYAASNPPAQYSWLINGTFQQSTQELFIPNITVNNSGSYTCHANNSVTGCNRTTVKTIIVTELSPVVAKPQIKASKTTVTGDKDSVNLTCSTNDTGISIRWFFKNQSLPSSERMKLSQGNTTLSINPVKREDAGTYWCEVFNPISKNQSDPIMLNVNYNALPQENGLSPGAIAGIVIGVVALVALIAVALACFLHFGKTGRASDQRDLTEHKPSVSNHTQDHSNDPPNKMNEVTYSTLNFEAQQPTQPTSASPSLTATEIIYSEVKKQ
As to the kind of experiment: confocal fluorescence microscopy of labelled protein on cells; 1 µM AlexaFluor 647-labelled CbpF nanodiscs on HEK293T cells transfected with CEACAM1-GFP, 2 h at 37 °C, compared with empty nanodiscs; integrated fluorescence colocalizing with GFP or with the membrane stain. The conditions noted are these: one partner purified.

In data set [3] the target is B3. As to the kind of experiment: cryo-EM structure; 4.6 µM nanodisc-embedded CbpF (trimer) incubated with 14 µM CEACAM1/ECD for 60 min at 23 °C, excess CEACAM1 removed by SEC; single particle analysis, C3 symmetry. The conditions noted are these: both partners purified. A general note: In gel filtration, larger molecules generally elute earlier.
Data set [4] deals with the molecule itself. As to the kind of experiment: SDS-PAGE (SDS- and heat-resistant oligomer); purified CbpF, in detergent and after reconstitution in DMPC/MSP1D1 nanodiscs; band above 150 kDa.
The target of data set [5] is B2. As to the kind of experiment: SPR; same sensorgrams as a4, steady-state signals of the binding curves evaluated. The conditions noted are these: both partners purified.
For data set [6], the target named is B2. As to the kind of experiment: competition of cell binding (confocal fluorescence microscopy); labelled CbpF nanodiscs preincubated with 1 or 2 µM purified CEACAM1-ECD for 30 min at 25 °C before incubation with cells. The settings on record: both partners purified.
The target of data set [7] is B2. As to the kind of experiment: SPR; Biacore T200; CEACAM1-ECD-His6 captured on an anti-His antibody on a CM5 chip (~35 RU); CbpF injected, 11.5 to 1,480 nM (WT) or 15.6 to 1,000 nM (WT and variants); 25 mM MOPS-NaOH, 150 mM NaCl, 1 % P8POE, pH 7.0, 25 °C; global fit with a 1:1 Langmuir or a heterogeneous ligand model. The conditions noted are these: both partners purified.

Data set [8] deals with B1. As to the kind of experiment: SPR; CEACAM1-ECD-His6 captured (about 35 RU) on anti-His antibody on a CM5 chip, Biacore T200; CbpF injected at 11.5-1480 nM (WT) or 15.6-1000 nM (WT and variants); 25 mM MOPS-NaOH, 150 mM NaCl, 1 % P8POE, pH 7.0, 25 °C; 240 s association, 600 s dissociation; 1:1 Langmuir global fit. The conditions noted are these: both partners purified. On the technique in general: SPR reads the build-up and loss of mass on a sensor chip optically.

Where “and” joins values, the source holds several entries; their conditions need not be identical. Equal entries are not always repeated.

One may read the stoichiometry N as the number of molecules, sites or subunits per partner or assembly. With B1, the “stoichiometry N” value in data set [1] was determined as 3.

For B2, in data set [2], the “fold increase of the mean fluorescence signal over empty nanodiscs (colocalizing with cells)” value was 9.3 fold and the “fold increase of the mean fluorescence signal over nanodiscs without CbpF (colocalizing with CEACAM1-GFP)” value was around 460 fold. Besides, the “stoichiometry N” value in data set [3] was 1 CEACAM1 per CbpF protomer. Also, the “stoichiometry N” value in data set [4] was 3.

The Kd is the equilibrium constant for the complex coming apart. A high value points to weaker binding. One may read the koff as the rate constant with which the complex falls apart. The low end stands for a long-lived complex, the high end for a short-lived complex. As a reminder, the kon is the rate constant with which the complex forms. High values mean faster complex formation, low ones slower complex formation. For the molecule B3, the Kd in data set [5] stood at 75 ± 14 nM. For the same molecule, the “fold decrease of the CbpF signal on cells after preincubation” value in data set [6] was around 11 fold. In data set [7], the equilibrium dissociation constant (Kd) was 6.2 nM, the koff came to 0.00051 s⁻¹ and the kon was found to be 81300 M⁻¹ s⁻¹.

B4: CEACAM1 extracellular domain (residues 35-428), C-terminal hexahistidine tag (domain or fragment, human, UniProt P13688 35-428, looked up)
chain: QLTTESMPFNVAEGKEVLLLVHNLPQQLFGYSWYKGERVDGNRQIVGYAIGTQQATPGPANSGRETIYPNASLLIQNVTQNDTGFYTLQVIKSDLVNEEATGQFHVYPELPKPSISSNNSNPVEDKDAVAFTCEPETQDTTYLWWINNQSLPVSPRLQLSNGNRTLTLLSVTRNDTGPYECEIQNPVSANRSDPVTLNVTYGPDTPTISPSDTYYRPGANLSLSCYAASNPPAQYSWLINGTFQQSTQELFIPNITVNNSGSYTCHANNSVTGCNRTTVKTIIVTELSPVVAKPQIKASKTTVTGDKDSVNLTCSTNDTGISIRWFFKNQSLPSSERMKLSQGNTTLSINPVKREDAGTYWCEVFNPISKNQSDPIMLNVNYNALPQENGLSPG
modifications: glycosylated
notes: carcinoembryonic antigen-related cell adhesion molecule 1 (CEACAM1), human, extracellular domain, residues 35-428; also called CEACAM1-ECD; CEACAM1/ECD; source: bought: ACRO Biosystems, Cat. No. CE1-H5220, produced in HEK293 cells; not shown: His6, C-terminal, kept
Take B4: in data set [8], the Kd is 6.16 nM and 6.29 nM; the koff is 0.000501 s⁻¹ and 0.000844 s⁻¹; the kon worked out at 134000 M⁻¹ s⁻¹.
